In patent publication US20100267626:

Target: T1, GST-Axin1 (a.a. 1-280), O35625
T1 chain: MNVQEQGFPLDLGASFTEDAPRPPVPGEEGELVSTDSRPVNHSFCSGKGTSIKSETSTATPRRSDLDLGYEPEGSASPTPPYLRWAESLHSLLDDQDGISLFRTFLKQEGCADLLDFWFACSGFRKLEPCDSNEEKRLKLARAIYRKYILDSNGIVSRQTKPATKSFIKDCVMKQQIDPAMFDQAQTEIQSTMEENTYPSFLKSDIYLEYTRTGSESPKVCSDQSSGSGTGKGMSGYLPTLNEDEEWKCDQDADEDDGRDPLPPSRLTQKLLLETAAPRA

B1: Recombinant TNKS2 (in vitro PARsylation assay) (protein)
chain: MSGRRCAGGGAACASAAAEAVEPAARELFEACRNGDVERVKRLVTPEKVNSRDTAGRKSTPLHFAAGFGRKDVVEYLLQNGANVQARDDGGLIPLHNACSFGHAEVVNLLLRHGADPNARDNWNYTPLHEAAIKGKIDVCIVLLQHGAEPTIRNTDGRTALDLADPSAKAVLTGEYKKDELLESARSGNEEKMMALLTPLNVNCHASDGRKSTPLHLAAGYNRVKIVQLLLQHGADVHAKDKGDLVPLHNACSYGHYEVTELLVKHGACVNAMDLWQFTPLHEAASKNRVEVCSLLLSYGADPTLLNCHNKSAIDLAPTPQLKERLAYEFKGHSLLQAAREADVTRIKKHLSLEMVNFKHPQTHETALHCAAASPYPKRKQICELLLRKGANINEKTKEFLTPLHVASEKAHNDVVEVVVKHEAKVNALDNLGQTSLHRAAYCGHLQTCRLLLSYGCDPNIISLQGFTALQMGNENVQQLLQEGISLGNSEADRQLLEAAKAGDVETVKKLCTVQSVNCRDIEGRQSTPLHFAAGYNRVSVVEYLLQHGADVHAKDKGGLVPLHNACSYGHYEVAELLVKHGAVVNVADLWKFTPLHEAAAKGKYEICKLLLQHGADPTKKNRDGNTPLDLVKDGDTDIQDLLRGDAALLDAAKKGCLARVKKLSSPDNVNCRDTQGRHSTPLHLAAGYNNLEVAEYLLQHGADVNAQDKGGLIPLHNAASYGHVDVAALLIKYNACVNATDKWAFTPLHEAAQKGRTQLCALLLAHGADPTLKNQEGQTPLDLVSADDVSALLTAAMPPSALPSCYKPQVLNGVRSPGATADALSSGPSSPSSLSAASSLDNLSGSFSELSSVVSSSGTEGASSLEKKEVPGVDFSITQFVRNLGLEHLMDIFEREQITLDVLVEMGHKELKEIGINAYGHRHKLIKGVERLISGQQGLNPYLTLNTSGSGTILIDLSPDDKEFQSVEEEMQSTVREHRDGGHAGGIFNRYNILKIQKVCNKKLWERYTHRRKEVSEENHNHANERMLFHGSPFVNAIIHKGFDERHAYIGGMFGAGIYFAENSSKSNQYVYGIGGGTGCPVHKDRSCYICHRQLLFCRVTLGKSFLQFSAMKMAHSPPGHHSVTGRPSVNGLALAEYVIYRGEQAYPEYLITYQIMRPEGMVDG
in vitro PARsylation with biotin-NAD+ (SDS-PAGE, streptavidin probe): TNKS2 was able to PARsylate an Axin1 fragment (a.a. 1-280) containing the TBD in vitro, which was completely inhibited by XAV939 treatment
